Bridge positions count the residues as written; N and C are the ends. Side chains are listed from the residue outwards. Ends that are not written are not given here. I, II: the chains in the order shown. * marks the point of attachment. Biotin = O=C1N[C@H]2[C@H](CS[C@H]2CCCCC(=O)*)N1; AEEA = NCCOCCOCC(=O)O

For experiment [1], the target named is T1, KDR (VEGFR-2), full-length receptor on cells (human, UniProt P35968 20-1356). Nature of the experiment: cell-based or functional assay.
Experiment [2] concerns the target T2, chimeric fusion of Ig Fc region with human KDR (human, UniProt P35968 20-764).
T2 construct: bought, carrier-free; also called KDR-Fc; KDR Fc fusion; not shown: Ig Fc region
As to the kind of experiment: BIAcore steady state, KD1, KDR-Fc 1600 RU.

In experiment [3] the target is T2, chimeric fusion of Ig Fc region with …. As to the kind of experiment: BIAcore steady state, KD1, KDR-Fc 3000 RU. The protocol: (§1) The heterodimer was tested for binding to KDR-Fc using Biacore, and an affinity constant was determined as follows.
(§2) All samples were injected in duplicate. […] Following a 10 minute dissociation, any remaining peptide was stripped from the KDR surface with a quickinject of 50 mM NaOH+1 M NaCl for 12 s at 75 μL/min. Sensorgrams were analyzed using BIAevaluation software 3.1 and a hyperbolic double rectangular regression equation in SigmaPlot 6.0.

Experiment [4] has the same target. As to the kind of experiment: BIAcore steady state, KD1, KDR-Fc 6000 RU. The protocol:
as §1, §2

Experiment [5] shares this target. As to the kind of experiment: BIAcore steady state, KDAV, KDR-Fc 1600 RU. How it is done:
as §1, §2

Experiment [6] has the same target. As to the kind of experiment: BIAcore steady state, KDAV, KDR-Fc 3000 RU. The protocol:
as §1, §2

Experiment [7] has the same target. As to the kind of experiment: BIAcore steady state, KDAV, KDR-Fc 6000 RU. How it is done: as §1, §2
For experiment [8] the target is unchanged. As to the kind of experiment: BIAcore steady state at the higher immobilization densities. The protocol:
as §2

Experiment [9] has as its target T1, KDR (VEGFR-2), full-length receptor on …. Nature of the experiment: 3.33 nM peptide mix/neutravidin-HRP complex on 293H cells. How it is done:
Peptide stock solutions were stored at −20C, whereas the Neutravidin HRP stock solution was stored at −80C. […] Fresh peptide/neutravidin HRP complexes were prepared for each experiment.
After incubation at room temperature, plates were transferred to 4C for another half-hour incubation. Subsequently, cells were washed five times with ice-cold M199 media and once with ice-cold PBS (in that order). After the final wash, 100 μL of ice cold TMB solution (KPL, Gaithersburg, Md.) was added to each well and each plate was incubated for 30 minutes at 37C in an air incubator.

Experiment [10] has the same target. As to the kind of experiment: competitor 125I-VEGF (300 pM) on KDR-transfected 293H cells; peptide 30 µM. How it is done: (§3) Preparation of 30 μM and 0.3 μM peptide solution in 300 pM ¹²⁵I-labeled VEGF: For each 96 well plate, 10 mL of 300 pM ¹²⁵I-labeled VEGF in M199 medium was prepared at 4° C. Each peptide solution (3 mM, prepared as described above) was diluted 1:100 and 1:10000 in 300 μl of M199 media with 300 pM ¹²⁵I-labeled VEGF to prepare 30 μM and 0.3 μM peptide solutions containing 300 pM of ¹²⁵I-labeled VEGF. Once prepared, the solutions were kept on ice until ready to use. The dilution of peptides in M199 media containing 300 pM ¹²⁵I-labeled VEGF was done freshly for each experiment.
(§4) To calculate the specific binding to KDR, the binding of ¹²⁵I-labeled VEGF to mock-transfected cells was subtracted from KDR-transfected cells.

The target is the same in experiment [11]. Nature of the experiment: competitor 125I-VEGF (300 pM) on KDR-transfected 293H cells; peptide 0.3 µM. How it is done:
as §3, §4

Experiment [12] addresses T2, chimeric fusion of Ig Fc region with …. As to the kind of experiment: SPR; form of KDR not stated there.
In experiment [13] the target is T1, KDR (VEGFR-2), full-length receptor on …. Nature of the experiment: saturation binding of peptide/neutravidin-HRP complex, KDR- minus mock-transfected 293H cells. The protocol:
After incubation at room temperature, plates were transferred to 4° C. for another half-hour incubation. Subsequently, cells were washed 5 times with ice-cold M199 media and once with ice-cold PBS (in that order). After the final wash, 100 μl of ice cold TMB solution (KPL, cat. # 50-76-00) was added to each well and each plate was incubated for 30 minutes at 37° C. in an air incubator.
Therefore, absorbance on the Y-axis of FIG. 1 is differential absorbance (KDR minus mock) and not the absolute absorbance.

T2 sequence (P35968 20-764, change not shown): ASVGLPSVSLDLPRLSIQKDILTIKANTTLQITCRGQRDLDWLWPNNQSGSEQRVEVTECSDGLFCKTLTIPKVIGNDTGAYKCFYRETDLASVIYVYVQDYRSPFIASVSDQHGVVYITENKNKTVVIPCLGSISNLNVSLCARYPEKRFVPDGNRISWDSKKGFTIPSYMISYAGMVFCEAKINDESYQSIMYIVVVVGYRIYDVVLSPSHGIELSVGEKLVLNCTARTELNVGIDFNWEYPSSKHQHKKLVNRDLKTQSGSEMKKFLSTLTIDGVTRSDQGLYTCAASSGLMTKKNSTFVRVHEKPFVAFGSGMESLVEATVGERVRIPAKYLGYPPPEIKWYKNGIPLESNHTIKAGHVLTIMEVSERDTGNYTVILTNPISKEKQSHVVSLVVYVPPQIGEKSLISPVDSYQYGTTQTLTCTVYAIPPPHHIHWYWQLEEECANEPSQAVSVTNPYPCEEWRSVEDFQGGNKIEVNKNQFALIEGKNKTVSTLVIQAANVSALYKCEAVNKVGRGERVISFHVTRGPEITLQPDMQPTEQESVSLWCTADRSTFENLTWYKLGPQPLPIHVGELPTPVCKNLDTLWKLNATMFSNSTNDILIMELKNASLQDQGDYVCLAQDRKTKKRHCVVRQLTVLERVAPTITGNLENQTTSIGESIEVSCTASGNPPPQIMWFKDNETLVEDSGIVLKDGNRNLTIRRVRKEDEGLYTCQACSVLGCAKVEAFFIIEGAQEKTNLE
T1 sequence (P35968 20-1356): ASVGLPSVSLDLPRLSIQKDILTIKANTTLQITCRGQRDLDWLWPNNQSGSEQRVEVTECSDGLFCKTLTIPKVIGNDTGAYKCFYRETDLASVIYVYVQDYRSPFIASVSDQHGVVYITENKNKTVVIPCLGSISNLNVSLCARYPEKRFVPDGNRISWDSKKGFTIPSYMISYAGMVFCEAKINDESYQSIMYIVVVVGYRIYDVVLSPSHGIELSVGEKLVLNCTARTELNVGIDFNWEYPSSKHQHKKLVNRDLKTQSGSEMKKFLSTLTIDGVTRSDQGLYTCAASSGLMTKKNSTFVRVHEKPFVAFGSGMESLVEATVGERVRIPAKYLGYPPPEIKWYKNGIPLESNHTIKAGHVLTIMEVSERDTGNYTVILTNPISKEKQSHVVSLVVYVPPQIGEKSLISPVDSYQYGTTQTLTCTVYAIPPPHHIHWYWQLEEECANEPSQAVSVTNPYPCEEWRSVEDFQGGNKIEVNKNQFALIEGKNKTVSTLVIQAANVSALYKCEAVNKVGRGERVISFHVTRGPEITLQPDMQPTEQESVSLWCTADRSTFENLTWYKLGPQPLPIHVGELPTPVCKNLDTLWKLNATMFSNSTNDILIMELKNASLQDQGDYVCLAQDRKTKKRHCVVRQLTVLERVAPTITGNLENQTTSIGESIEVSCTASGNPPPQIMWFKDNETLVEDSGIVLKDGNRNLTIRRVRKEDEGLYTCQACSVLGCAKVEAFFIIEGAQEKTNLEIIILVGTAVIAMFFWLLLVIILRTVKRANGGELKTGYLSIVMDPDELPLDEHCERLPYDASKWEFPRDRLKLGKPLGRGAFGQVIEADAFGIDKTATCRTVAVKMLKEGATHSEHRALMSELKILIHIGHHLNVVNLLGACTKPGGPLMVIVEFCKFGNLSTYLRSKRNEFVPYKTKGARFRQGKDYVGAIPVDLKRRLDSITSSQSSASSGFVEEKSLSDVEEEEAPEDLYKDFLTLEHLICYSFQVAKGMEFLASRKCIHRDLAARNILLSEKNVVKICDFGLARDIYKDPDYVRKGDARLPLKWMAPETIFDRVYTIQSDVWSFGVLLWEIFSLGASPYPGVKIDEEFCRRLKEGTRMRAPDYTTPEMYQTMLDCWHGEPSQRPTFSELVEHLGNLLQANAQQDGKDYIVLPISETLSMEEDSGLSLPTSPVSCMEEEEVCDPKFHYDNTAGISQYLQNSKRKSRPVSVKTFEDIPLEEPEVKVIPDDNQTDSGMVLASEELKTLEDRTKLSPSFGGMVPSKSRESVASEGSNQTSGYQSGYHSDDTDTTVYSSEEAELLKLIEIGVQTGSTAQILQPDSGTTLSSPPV

Take VCWEDSWGGEVCFRYDPGGGK (disulfide 2-12 (inferred)) [SEQ ID NO:337, monomeric free peptide]: the “IC50, receptor activation assay” value in experiment [1] stood at 1000 nM.

B1: dimer 6 (D6) (peptide)
peptide 1: GDSRVCWEDSWGGEVCFRYDPGGGK
peptide 2: AGPTWCEDDWYYCWLFGTGGGK
modifications: disulfide I:6-I:16, II:6-II:13 (inferred); also: heterodimer joined by glutaric acid linkage
Regarding B1, the “IC50, VEGF-induced migration of HUVECs” value in [1] is ~12.5 nM. Besides, the “IC50, VEGF-induced migration of HUVECs, with 100 nM Adjunct A” value in experiment [1] is ~2.5 nM. For the same molecule, the Kd in experiment [2] came to 46 nM; in experiment [3], 25.5 nM; in experiment [4], 17 nM; in [5], 1.5 nM; in experiment [6], 0.665 nM; in experiment [7], 0.662 nM. In [8], the Kd is ~0.6 nM.

B2: tetrameric neutravidin-HRP complex of SEQ ID NO:294 and SEQ ID NO:264, ratio 3:1 (other)
peptide 1: Ac-GDSRVCWEDSWGGEVCFRYDPGGGK([AEEA-AEEA-Biotin])-NH2
peptide 2: Ac-AGPKWCEEDWYYCMITGTGGGK([AEEA-AEEA-Biotin])-NH2
modifications: disulfide I:6-I:16, II:6-II:13 (inferred); also: tetrameric neutravidin-HRP complex, chain ratio 3:1
notes: nominal composition
For the molecule B2, the binding result in experiment [9] is given as “binds”.
As for Ac-GDSRVCWEDSWGGEVCFRYDP (disulfide 6-16 (inferred)) [acetylated SEQ ID NO:294 without the modified C-terminus (SEQ ID NO:374)], the “% inhibition of 125I-labeled VEGF binding” value in experiment [10] was 96.3%; in [11] it was 52.3%.

B3: tetrameric neutravidin-HRP complex of SEQ ID NO:294 and SEQ ID NO:264, ratio 1:3 (other)
peptide 1: Ac-GDSRVCWEDSWGGEVCFRYDPGGGK([AEEA-AEEA-Biotin])-NH2
peptide 2: Ac-AGPKWCEEDWYYCMITGTGGGK([AEEA-AEEA-Biotin])-NH2
modifications: disulfide I:6-I:16, II:6-II:13 (inferred); also: tetrameric neutravidin-HRP complex, chain ratio 1:3
notes: nominal composition
In the case of B3, in experiment [9], the binding result was “binds”.

B4: dimer 28 (D28) (peptide)
peptide 1: AQEPEGYAYWEVITLYHEEDGDGGK
peptide 2: AQAFPRFGGDDYWIQQYLRYTDGGK
modifications: also: tail-to-tail heterodimer, linkage not given here
Turning to B4, the Kd in [12] was 11 nM.

B5: tetrameric neutravidin-HRP complex of SEQ ID NO:294 and SEQ ID NO:264, ratio 2:2 (other)
peptide 1: Ac-GDSRVCWEDSWGGEVCFRYDPGGGK([AEEA-AEEA-Biotin])-NH2
peptide 2: Ac-AGPKWCEEDWYYCMITGTGGGK([AEEA-AEEA-Biotin])-NH2
modifications: disulfide I:6-I:16, II:6-II:13 (inferred); also: tetrameric neutravidin-HRP complex, chain ratio 2:2
notes: nominal composition
Turning to B5, the binding result in experiment [9] was “binds”.

B6: tetrameric complex of biotinylated SEQ ID NO:294 (JJ spacer) with neutravidin-HRP (other)
peptide: Ac-GDSRVCWEDSWGGEVCFRYDPGGGK([AEEA-AEEA-Biotin])-NH2
modifications: disulfide 6-16 (inferred); also: tetrameric complex with neutravidin-HRP
notes: peptides held on neutravidin-HRP (Pierce 31001)
In experiment [13], B6 had a Kd of 10 nM.

The values above are taken from patent publication US20050250700A1 (BRACCO SUISSE, published 2005).
